Key:
HeLa Kyoto [1] = experiment: melting temperature (median over replicates), in situ; higher = more thermally stable
HeLa Kyoto [2] = experiment: solubility change mitosis vs G1/S (difference of NP-40 vs SDS log2 ratios) (log2 ratio difference); higher = more soluble in mitosis
HeLa Kyoto [3] = experiment: solubility in G1/S (NP-40 vs SDS abundance) (log2 ratio); higher = more soluble; settings: cell cycle stage: G1/S
HeLa Kyoto [4] = experiment: thermal stability score vs G1/S (z-score of summed log2 fold changes over temperatures); higher = more thermally stable than in G1/S
[5] = cell cycle stage: early G1 (4.5 h after nocodazole release)
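Wherever melting temperature (median over replicates), in situ is given: HeLa Kyoto cells synchronized by double thymidine or nocodazole block, proteins quantified by TMT10plex mass spectrometry, three independent biological replicates.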
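Wherever solubility change mitosis vs G1/S (difference of NP-40 vs SDS log2 ratios) is given: synchronized HeLa Kyoto cells (double thymidine block for G1/S, nocodazole release for mitosis), protein amounts in NP-40 versus SDS lysates quantified by mass spectrometry, three biological replicates.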
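Wherever solubility in G1/S (NP-40 vs SDS abundance) is given: HeLa Kyoto cells arrested at G1/S by double thymidine block, proteins quantified by TMT10plex mass spectrometry in mild NP-40 versus SDS extracts, three biological replicates.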
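Wherever thermal stability score vs G1/S (z-score of summed log2 fold changes over temperatures) is given: synchronized HeLa Kyoto cells, proteins quantified by TMT10plex mass spectrometry, three biological replicates, mitosis taken 0.5 h after nocodazole release, G1/S directly after double thymidine block.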

| Sequence | melting temperature (HeLa Kyoto [1]; cell cycle stage: G1/S) [°C] | melting temperature (HeLa Kyoto [1]; cell cycle stage: mitosis) [°C] | solubility change mitosis (log2) (HeLa Kyoto [2]) | solubility in G1/S (log2) (HeLa Kyoto [3]) | thermal stability score (HeLa Kyoto [4]; [5]) | thermal stability score (HeLa Kyoto [4]; cell cycle stage: mitosis) |
| --- | --- | --- | --- | --- | --- | --- |
| MWRLRRAAVACEVCQSLVKHSSGIKGSLPLQKLHLVSRSIYHSHHPTLKLQRPQLRTSFQQFSSLTNLPLRKLKFSPIKYGYQPRRNFWPARLATRLLKLRYLILGSAVGGGYTAKKTFDQWKDMIPDLSEYKWIVPDIVWEIDEYIDFEKIRKALPSSEDLVKLAPDFDKIVESLSLLKDFFTSGSPEETAFRATDRGSESDKHFRKVSDKEKIDQLQEELLHTQLKYQRILERLEKENKELRKLVLQKDDKGIHHRKLKKSLIDMYSEVLDVLSDYDASYNTQDHLPRVVVVGDQSAGKTSVLEMIAQARIFPRGSGEMMTRSPVKVTLSEGPHHVALFKDSSREFDLTKEEDLAALRHEIELRMRKNVKEGCTVSPETISLNVKGPGLQRMVLVDLPGVINTVTSGMAPDTKETIFSISKAYMQNPNAIILCIQDGSVDAERSIVTDLVSQMDPHGRRTIFVLTKVDLAEKNVASPSRIQQIIEGKLFPMKALGYFAVVTGKGNSSESIEAIREYEEEFFQNSKLLKTSMLKAHQVTTRNLSLAVSDCFWKMVRESVEQQADSFKATRFNLETEWKNNYPRLRELDRNELFEKAKNEILDEVISLSQVTPKHWEEILQQSLWERVSTHVIENIYLPAAQTMNSGTFNTTVDIKLKQWTDKQLPNKAVEVAWETLQEEFSRFMTEPKGKEHDDIFDKLKEAVKEESIKRHKWNDFAEDSLRVIQHNALEDRSISDKQQWDAAIYFMEEALQARLKDTENAIENMVGPDWKKRWLYWKNRTQEQCVHNETKNELEKMLKCNEEHPAYLASDEITTVRKNLESRGVEVDPSLIKDTWHQVYRRHFLKTALNHCNLCRRGFYYYQRHFVDSELECNDVVLFWRIQRMLAITANTLRQQLTNTEVRRLEKNVKEVLEDFAEDGEKKIKLLTGKRVQLAEDLKKVREIQEKLDAFIEALHQEK [OPA1] | 51.3 | 51 | -0.0649 | -0.149 | 1.61 | 0.517 |
| MWRLVPPKLGRLSRSLKLAALGSLLVLMVLHSPSLLASWQRNELTDRRFLQLNKCPACFGTSWCRRFLNGQVVFEAWGRLRLLDFLNVKNVYFAQYGEPREGGRRRVVLKRLGSQRELAQLDQSICKRATGRPRCDLLQAMPRTEFARLNGDVRLLTPEAVEGWSDLVHCPSQRLLDRLVRRYAETKDSGSFLLRNLKDSERMQLLLTLAFNPEPLVLQSFPSDEGWPFAKYLGACGRMVAVNYVGEELWSYFNAPWEKRVDLAWQLMEIAEQLTNNDFEFALYLLDVSFDNFAVGPRDGKVIIVDAENVLVADKRLIRQNKPENWDVWYESKFDDCDKEACLSFSKEILCARATVDHNYYAVCQNLLSRHATWRGTSGGLLHDPPSEIAKDGRLEALLDECANPKKRYGRFQAAKELREYLAQLSNNVR [C3ORF58] | 53 | 52.3 | -0.109 | 0.0343 | -0.149 | -0.787 |
| MWRRKHPRTSGGTRGVLSGNRGVEYGSGRGHLGTFEGRWRKLPKMPEAVGTDPSTSRKMAELEEVTLDGKPLQALRVTDLKAALEQRGLAKSGQKSALVKRLKGALMLENLQKHSTPHAAFQPNSQIGEEMSQNSFIKQYLEKQQELLRQRLEREAREAAELEEASAESEDEMIHPEGVASLLPPDFQSSLERPELELSRHSPRKSSSISEEKGDSDDEKPRKGERRSSRVRQARAAKLSEGSQPAEEEEDQETPSRNLRVRADRNLKTEEEEEEEEEEEEDDEEEEGDDEGQKSREAPILKEFKEEGEEIPRVKPEEMMDERPKTRSQEQEVLERGGRFTRSQEEARKSHLARQQQEKEMKTTSPLEEEEREIKSSQGLKEKSKSPSPPRLTEDRKKASLVALPEQTASEEETPPPLLTKEASSPPPHPQLHSEEEIEPMEGPAPAVLIQLSPPNTDADTRELLVSQHTVQLVGGLSPLSSPSDTKAESPAEKVPEESVLPLVQKSTLADYSAQKDLEPESDRSAQPLPLKIEELALAKGITEECLKQPSLEQKEGRRASHTLLPSHRLKQSADSSSSRSSSSSSSSSRSRSRSPDSSGSRSHSPLRSKQRDVAQARTHANPRGRPKMGSRSTSESRSRSRSRSRSASSNSRKSLSPGVSRDSSTSYTETKDPSSGQEVATPPVPQLQVCEPKERTSTSSSSVQARRLSQPESAEKHVTQRLQPERGSPKKCEAEEAEPPAATQPQTSETQTSHLPESERIHHTVEEKEEVTMDTSENRPENDVPEPPMPIADQVSNDDRPEGSVEDEEKKESSLPKSFKRKISVVSATKGVPAGNSDTEGGQPGRKRRWGASTATTQKKPSISITTESLKSLIPDIKPLAGQEAVVDLHADDSRISEDETERNGDDGTHDKGLKICRTVTQVVPAEGQENGQREEEEEEKEPEAEPPVPPQVSVEVALPPPAEHEVKKVTLGDTLTRRSISQQKSGVSITIDDPVRTAQVPSPPRGKISNIVHISNLVRPFTLGQLKELLGRTGTLVEEAFWIDKIKSHCFVTYSTVEEAVATRTALHGVKWPQSNPKFLCADYAEQDELDYHRGLLVDRPSETKTEEQGIPRPLHPPPPPPVQPPQHPRAEQREQERAVREQWAEREREMERRERTRSEREWDRDKVREGPRSRSRSRDRRRKERAKSKEKKSEKKEKAQEEPPAKLLDDLFRKTKAAPCIYWLPLTDSQIVQKEAERAERAKEREKRRKEQEEEEQKEREKEAERERNRQLEREKRREHSRERDRERERERERDRGDRDRDRERDRERGRERDRRDTKRHSRSRSRSTPVRDRGGRR [ACIN1] | 49.6 | 50.8 | 0.887 | -1.35 | -3.76 | -1.15 |
| MWTLVSWVALTAGLVAGTRCPDGQFCPVACCLDPGGASYSCCRPLLDKWPTTLSRHLGGPCQVDAHCSAGHSCIFTVSGTSSCCPFPEAVACGDGHHCCPRGFHCSADGRSCFQRSGNNSVGAIQCPDSQFECPDFSTCCVMVDGSWGCCPMPQASCCEDRVHCCPHGAFCDLVHTRCITPTGTHPLAKKLPAQRTNRAVALSSSVMCPDARSRCPDGSTCCELPSGKYGCCPMPNATCCSDHLHCCPQDTVCDLIQSKCLSKENATTDLLTKLPAHTVGDVKCDMEVSCPDGYTCCRLQSGAWGCCPFTQAVCCEDHIHCCPAGFTCDTQKGTCEQGPHQVPWMEKAPAHLSLPDPQALKRDVPCDNVSSCPSSDTCCQLTSGEWGCCPIPEAVCCSDHQHCCPQGYTCVAEGQCQRGSEIVAGLEKMPARRASLSHPRDIGCDQHTSCPVGQTCCPSLGGSWACCQLPHAVCCEDRQHCCPAGYTCNVKARSCEKEVVSAQPATFLARSPHVGVKDVECGEGHFCHDNQTCCRDNRQGWACCPYRQGVCCADRRHCCPAGFRCAARGTKCLRREAPRWDAPLRDPALRQLL [GRN] | 54.9 | 60.5 | -0.134 | 0.135 | -2.57 | -3.69 |

Source: the supplement of paper PMC5998384
